PMC8178248
Several values for one entry are separate records, joined by “and”; a condition that tells them apart may be missing. Equal entries are not always repeated.

Key:
[1] = molecular target: DrdV restriction-modification enzyme (Deinococcus wulumuqiensis 479); assay: negative stain EM
[2] = molecular target: DrdV restriction-modification enzyme (Deinococcus wulumuqiensis 479); assay: SEC
[3] = molecular target: DrdV restriction-modification enzyme (Deinococcus wulumuqiensis 479); assay: cryo-EM structure
[4] = molecular target: DrdV restriction-modification enzyme (Deinococcus wulumuqiensis 479); assay: cryo-EM structure; remark: listed apart in the source

- stoichiometry N [1]: 4
- stoichiometry N [2]: 4
- stoichiometry N [3]: 3 and 4
- stoichiometry N [4]: 2
Substance: DrdV restriction-modification enzyme
